From US20250076311A1 (Chugai, published 2025)

T1: cynomolgus monkey FcγRIIa2 extracellular domain with C-terminal His-tag (cynomolgus monkey)
T1 construct: also called cyno FcgRIIa2; cynoFcγRIIa2; not shown: His-tag added to C-terminus
T1 chain: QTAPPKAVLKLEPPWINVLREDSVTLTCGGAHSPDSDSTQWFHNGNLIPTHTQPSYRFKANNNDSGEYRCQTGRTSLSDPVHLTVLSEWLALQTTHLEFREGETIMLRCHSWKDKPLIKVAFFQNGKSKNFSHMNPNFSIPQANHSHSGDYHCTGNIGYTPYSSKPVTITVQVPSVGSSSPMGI

T2: cynomolgus monkey FcγRIIb extracellular domain with C-terminal His-tag (cynomolgus monkey)
T2 construct: also called cyno FcgRIIb; cynoFcγRIIb; not shown: His-tag added to C-terminus
T2 chain: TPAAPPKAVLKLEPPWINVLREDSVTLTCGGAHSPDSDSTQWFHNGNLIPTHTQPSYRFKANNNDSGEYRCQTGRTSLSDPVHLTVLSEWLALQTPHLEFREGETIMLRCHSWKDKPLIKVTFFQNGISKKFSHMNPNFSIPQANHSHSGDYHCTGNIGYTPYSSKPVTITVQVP

T3: human FcγRIIb extracellular domain with C-terminal His-tag (human, UniProt P31994 43-217)
T3 construct: also called human FcgRIIb; not shown: His-tag added to C-terminus
T3 sequence: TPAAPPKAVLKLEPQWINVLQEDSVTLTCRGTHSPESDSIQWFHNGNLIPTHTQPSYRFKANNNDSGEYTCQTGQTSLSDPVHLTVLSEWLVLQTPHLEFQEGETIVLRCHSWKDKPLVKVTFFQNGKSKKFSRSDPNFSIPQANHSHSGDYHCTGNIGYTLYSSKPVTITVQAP

T4: cynomolgus monkey FcγRIIIaS extracellular domain, His-tagged (cynomolgus monkey, UniProt Q8SPW2 21-206 at identity 1.00))
T4 construct: also called cyno FcγRIIIaS; cynoFcgRIIIaS
T4 chain: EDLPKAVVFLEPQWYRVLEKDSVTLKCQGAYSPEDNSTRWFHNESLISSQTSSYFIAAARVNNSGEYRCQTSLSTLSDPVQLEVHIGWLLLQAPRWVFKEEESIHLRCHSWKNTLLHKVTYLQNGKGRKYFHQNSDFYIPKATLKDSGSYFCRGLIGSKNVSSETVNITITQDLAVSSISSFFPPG

T5: cynomolgus monkey FcγRIIa3 extracellular domain with C-terminal His-tag (cynomolgus monkey)
T5 construct: also called cyno FcgRIIa3; cynoFcγRIIa3; not shown: His-tag added to C-terminus
T5 chain: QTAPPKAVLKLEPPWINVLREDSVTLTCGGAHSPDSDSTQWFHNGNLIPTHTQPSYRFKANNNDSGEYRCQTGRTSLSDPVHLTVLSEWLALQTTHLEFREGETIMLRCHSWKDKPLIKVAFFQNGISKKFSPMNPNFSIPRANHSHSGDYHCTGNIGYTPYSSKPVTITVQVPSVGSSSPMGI

B1: M103205H795-MY184/M103202L889-SK1 (antibody, human IgG1, kappa, name in EU numbering)
heavy: QVTLKESGPVLVKPTETLTLTCTVSGIDLSHDDISWVRQAPGKGLEWVGIISYAGSTYYASWAKGRLTISKDTSKNQVVLTMTNMDPVDTATYYCARGVPAYSHGGDLWGQGTLVTVSSASTKGPSVFPLAPSSKSTSGGTAALGCLVKDYFPEPVTVSWNSGALTSGVHTFPAVLQSSGLYSLSSVVTVPSSSLGTQTYICNVNHKPSNTKVDKKVEPKSCDKTHTCPPCPAPELLNGPSVFLFPPKPKDTLMISRTPEVTCVVVDVSEEDPEVKFNWYVDGVEVHNAKTKPREEQYNSTYRVVSVLTVLHQDWLNGKEYKCKVSNKALPAPIEKTISKAKGQPREPQVYTLPPSREEMTKNQVSLTCLVKGFYPSDIAVEWESNGQPENNYKTTPYVLDSDGSFFLYSKLTVDKSRWQQGNVFSCSVMHEALHNHYTQKSLSLSP
light: DIVMTQSPATLSLSPGERATLSCTSSQSVYHANWLSWFQQKPGQPPKLLIYWASTLAYGVPSRFSGSGSGTDFTLTISSLQPEDAATYYCAGGYGGGRYAFGQGTKVEIKRTVAAPSVFIFPPSDEQLKSGTASVVCLLNNFYPREAKVQWKVDNALQSGNSQESVTEQDSKDSTYSLSSTLTLSKADYEKHKVYACEVTHQGLSSPVTKSFNRGEC
notes: EU numbering
B2: M103205H795-MY447/M103202L889-SK1 (antibody, human IgG1, kappa, name in EU numbering)
heavy: QVTLKESGPVLVKPTETLTLTCTVSGIDLSHDDISWVRQAPGKGLEWVGIISYAGSTYYASWAKGRLTISKDTSKNQVVLTMTNMDPVDTATYYCARGVPAYSHGGDLWGQGTLVTVSSASTKGPSVFPLAPSSKSTSGGTAALGCLVKDYFPEPVTVSWNSGALTSGVHTFPAVLQSSGLYSLSSVVTVPSSSLGTQTYICNVNHKPSNTKVDKKVEPKSCDKTHTCPPCPAIELLTGPSVFLFPPKPKDTLMISRTPEVTCVVVDVSDEDPEVKFNWYVDGVEVHNAKTKPREEQYNSTYRVVSVLTVLHQDWLNGKEYKCKVSNKALPKPIEKTISKAKGQPREPQVYTLPPSREEMTKNQVSLTCLVKGFYPSDIAVEWESNGQPENNYKTTPPVLDSDGSFFLYSKLTVDKSRWQQGNVFSCSVMHEALHNHYTQKSLSLSP
light: DIVMTQSPATLSLSPGERATLSCTSSQSVYHANWLSWFQQKPGQPPKLLIYWASTLAYGVPSRFSGSGSGTDFTLTISSLQPEDAATYYCAGGYGGGRYAFGQGTKVEIKRTVAAPSVFIFPPSDEQLKSGTASVVCLLNNFYPREAKVQWKVDNALQSGNSQESVTEQDSKDSTYSLSSTLTLSKADYEKHKVYACEVTHQGLSSPVTKSFNRGEC
B3: M103205H795-MY451/M103202L889-SK1 (antibody, human IgG1, kappa, name in EU numbering)
heavy: QVTLKESGPVLVKPTETLTLTCTVSGIDLSHDDISWVRQAPGKGLEWVGIISYAGSTYYASWAKGRLTISKDTSKNQVVLTMTNMDPVDTATYYCARGVPAYSHGGDLWGQGTLVTVSSASTKGPSVFPLAPSSKSTSGGTAALGCLVKDYFPEPVTVSWNSGALTSGVHTFPAVLQSSGLYSLSSVVTVPSSSLGTQTYICNVNHKPSNTKVDKKVEPKSCDKTHTCPPCPANELLTGPSVFLFPPKPKDTLMISRTPEVTCVVVDVSDEDPEVKFNWYVDGVEVHNAKTKPREEQYNSTYRVVSVLTVLHQDWLNGKEYKCKVSNKALPKPIEKTISKAKGQPREPQVYTLPPSREEMTKNQVSLTCLVKGFYPSDIAVEWESNGQPENNYKTTPPVLDSDGSFFLYSKLTVDKSRWQQGNVFSCSVMHEALHNHYTQKSLSLSP
light: DIVMTQSPATLSLSPGERATLSCTSSQSVYHANWLSWFQQKPGQPPKLLIYWASTLAYGVPSRFSGSGSGTDFTLTISSLQPEDAATYYCAGGYGGGRYAFGQGTKVEIKRTVAAPSVFIFPPSDEQLKSGTASVVCLLNNFYPREAKVQWKVDNALQSGNSQESVTEQDSKDSTYSLSSTLTLSKADYEKHKVYACEVTHQGLSSPVTKSFNRGEC
B4: M103205H795-MY207/M103202L889-SK1 (antibody, human IgG1, kappa, name in EU numbering)
heavy: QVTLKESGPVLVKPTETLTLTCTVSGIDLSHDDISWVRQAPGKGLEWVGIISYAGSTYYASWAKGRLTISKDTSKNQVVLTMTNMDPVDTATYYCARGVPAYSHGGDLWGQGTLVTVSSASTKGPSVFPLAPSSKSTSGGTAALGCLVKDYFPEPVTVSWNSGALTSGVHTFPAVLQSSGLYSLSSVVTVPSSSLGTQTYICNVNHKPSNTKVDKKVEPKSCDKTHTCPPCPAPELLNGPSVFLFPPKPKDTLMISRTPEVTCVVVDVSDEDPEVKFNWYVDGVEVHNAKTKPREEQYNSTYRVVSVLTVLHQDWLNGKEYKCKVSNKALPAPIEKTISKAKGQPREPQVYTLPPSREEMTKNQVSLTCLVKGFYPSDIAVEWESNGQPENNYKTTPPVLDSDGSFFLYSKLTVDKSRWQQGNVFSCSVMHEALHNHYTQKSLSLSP
light: DIVMTQSPATLSLSPGERATLSCTSSQSVYHANWLSWFQQKPGQPPKLLIYWASTLAYGVPSRFSGSGSGTDFTLTISSLQPEDAATYYCAGGYGGGRYAFGQGTKVEIKRTVAAPSVFIFPPSDEQLKSGTASVVCLLNNFYPREAKVQWKVDNALQSGNSQESVTEQDSKDSTYSLSSTLTLSKADYEKHKVYACEVTHQGLSSPVTKSFNRGEC
notes: substitutions in EU numbering, introduced into M103205H795-SG1
B5: M103205H795-MY208/M103202L889-SK1 (antibody, human IgG1, kappa, name in EU numbering)
heavy: QVTLKESGPVLVKPTETLTLTCTVSGIDLSHDDISWVRQAPGKGLEWVGIISYAGSTYYASWAKGRLTISKDTSKNQVVLTMTNMDPVDTATYYCARGVPAYSHGGDLWGQGTLVTVSSASTKGPSVFPLAPSSKSTSGGTAALGCLVKDYFPEPVTVSWNSGALTSGVHTFPAVLQSSGLYSLSSVVTVPSSSLGTQTYICNVNHKPSNTKVDKKVEPKSCDKTHTCPPCPAPELLNGPSVFLFPPKPKDTLMISRTPEVTCVVVDVSDEDPEVKFNWYVDGVEVHNAKTKPREELYNSTYRVVSVLTVLHQDWLNGKEYKCKVSNKALPAPIEKTISKAKGQPREPQVYTLPPSREEMTKNQVSLTCLVKGFYPSDIAVEWESNGQPENNYKTTPPVLDSDGSFFLYSKLTVDKSRWQQGNVFSCSVMHEALHNHYTQKSLSLSP
light: DIVMTQSPATLSLSPGERATLSCTSSQSVYHANWLSWFQQKPGQPPKLLIYWASTLAYGVPSRFSGSGSGTDFTLTISSLQPEDAATYYCAGGYGGGRYAFGQGTKVEIKRTVAAPSVFIFPPSDEQLKSGTASVVCLLNNFYPREAKVQWKVDNALQSGNSQESVTEQDSKDSTYSLSSTLTLSKADYEKHKVYACEVTHQGLSSPVTKSFNRGEC
notes: as for B4
B6: M103205H795-MY211/M103202L889-SK1 (antibody, human IgG1, kappa, name in EU numbering)
heavy: QVTLKESGPVLVKPTETLTLTCTVSGIDLSHDDISWVRQAPGKGLEWVGIISYAGSTYYASWAKGRLTISKDTSKNQVVLTMTNMDPVDTATYYCARGVPAYSHGGDLWGQGTLVTVSSASTKGPSVFPLAPSSKSTSGGTAALGCLVKDYFPEPVTVSWNSGALTSGVHTFPAVLQSSGLYSLSSVVTVPSSSLGTQTYICNVNHKPSNTKVDKKVEPKSCDKTHTCPPCPAPELLNGPVVFLFPPKPKDTLMISRTPEVTCVVVDVSDEDPEVKFNWYVDGVEVHNAKTKPREEQYNSTYRVVSVLTVLHQDWLNGKEYKCKVSNTALPKPIEKTISKAKGQPREPQVYTLPPSREEMTKNQVSLTCLVKGFYPSDIAVEWESNGQPENNYKTTPPVLDSDGSFFLYSKLTVDKSRWQQGNVFSCSVMHEALHNHYTQKSLSLSP
light: DIVMTQSPATLSLSPGERATLSCTSSQSVYHANWLSWFQQKPGQPPKLLIYWASTLAYGVPSRFSGSGSGTDFTLTISSLQPEDAATYYCAGGYGGGRYAFGQGTKVEIKRTVAAPSVFIFPPSDEQLKSGTASVVCLLNNFYPREAKVQWKVDNALQSGNSQESVTEQDSKDSTYSLSSTLTLSKADYEKHKVYACEVTHQGLSSPVTKSFNRGEC
notes: as for B4

Key:
[1] = target: T1, cynomolgus monkey FcγRIIa2 …; assay: SPR Biacore, antibody captured, FcgR analyte
[2] = target: T2, cynomolgus monkey FcγRIIb extracellular …; assay: SPR Biacore, antibody captured, FcgR analyte
[3] = target: T6, cynomolgus monkey FcγRIIIaS extracellular domain with C-terminal His-tag (cynomolgus monkey, UniProt A3RFZ7 21-206 (rhesus entry)); assay: SPR Biacore, antibody captured, FcgR analyte
T6 construct: also called cyno FcgRIIIaS; cynoFcγRIIIaS; not shown: His-tag added to C-terminus

[4] = target: T3, human FcγRIIb extracellular domain with …; assay: SPR Biacore, antibody captured, FcgR analyte
[5] = target: T4, cynomolgus monkey FcγRIIIaS …; assay: SPR (BIACORE), antibody captured, FcγR analyte, 25 C; KD of SG1 divided by KD of variant
Experimental: The kinetic analysis of interactions between these antibodies and FcγR was carried out using BIACORE® T200 or BIACORE® 4000 (GE Healthcare). HBS-EP+ (GE Healthcare) was used as the running buffer, and the measurement temperature was set to 25° C. […] After the measurement, the antibody captured on the chip was washed off by allowing reaction with 10 mM glycine-HCl, pH1.5 and 25 mM NaOH so that the chip was regenerated and used repeatedly. The sensorgrams obtained as measurement results were analyzed by the 1:1 Langmuir binding model using the BIACORE® Evaluation Software to calculate the binding rate constant ka (L/mol/s) and dissociation rate constant kd (1/s), and the dissociation constant KD (mol/L) was calculated from these values. […] Regarding such interactions, KD values were calculated using the following 1:1 binding model described in BIACORE® T100 Software Handbook BR1006-48 Edition AE.

[6] = target: T5, cynomolgus monkey FcγRIIa3 …; assay: SPR Biacore, antibody captured, FcgR analyte

| Binder | KD fold (SG1 = 1) [1] [fold] | KD fold (SG1 = 1) [3] [fold] | KD fold (SG1 = 1) [5] [fold] | other results |
| --- | --- | --- | --- | --- |
| B1 | 2.8 | 0.11 |  | Kd [2]: 900 nM; Kd [3]: 3300 nM; KD fold (SG1 = 1) [4]: 4.7 fold |
| B2 |  |  | 0.3 |  |
| B3 |  |  | 0.2 |  |
| B4 | 3.6 | 0.09 |  |  |
| B5 | 3.4 | 0.13 |  |  |
| B6 | 8.8 | 0.17 |  | KD fold (SG1 = 1) [6]: 6.5 fold |
